The nature of assay [1]: P450BM3 compilation plate screen (GC, cyclopropane peaks). Format: biochemical. The following applies: for ee (cis): (R,S)-(S,R); for Absolute activity: sum of the area of the cyclopropane peaks over the area of the internal standard.
Assay [2] can be described thus: Small-scale anaerobic C—H amination with purified enzymes, azide 1. Type of assay: biochemical. As to conditions: benzosultam 3. The procedure:
Activities are presented in TTN. […] Yields and enantioselectivies determined by HPLC analysis. * (S−R)/(S+R). nd=not determined.
Enzymes used as purified catalysts were expressed as previously described (Lewis, J. C. et al., Proc. Natl. Acad. Sci. U.S.A. 106, 16550-16555 (2009)), and were purified by anion-exchange chromatography (for holoenzymes) or Ni-NTA chromatography (for isolated heme domains). Concentrations of P450 or P411 enzymes were determined as previously reported (Omura, T. & Sato, R., J. Biol. Chem. 239, 2370-2378 (1964); Vatsis, K. P. et al., J. Inorg. Biochem. 91, 542-553 (2002)). Small-scale reactions (400 μL) were conducted in 2 mL crimp vials containing degassed buffer (0.1 M potassium phosphate pH 8.0), enzyme (0.1-0.5% catalyst loading) and oxygen depletion system (10× stock solution containing 14,000 U/mL catalase, 1,000 U/mL glucose oxidase dissolved in 0.1 M KPi pH 8.0). Enzyme (P450 or P411) solution and oxygen depletion mixture were added to the vial with a small stir bar before crimp-sealing. […] Reactions were stirred at room temperature for 24 h under positive argon pressure.
Small-scale reactions (400 μL) were conducted in 2 mL crimp vials (Agilent Technologies, San Diego, Calif.) containing buffer (0.1 M potassium phosphate pH 8.0), enzyme (0.1-0.5% catalyst loading) and oxygen depletion system (10× stock solution containing 14,000 U/mL catalase, 1,000 U/mL glucose oxidase dissolved in 0.1 M KPi pH 8.0). Enzyme (P450 or P411) solution and oxygen depletion mixture were added to the vial with a small stir bar before crimp-sealing. […] In the meantime, the headspace of the sealed 2 mL reaction vial with the P450 solution was made anaerobic by flushing argon over the protein solution (with no bubbling). The buffer/reductant/glucose solution (270 μL) was syringed into the reaction vial with continuous argon purge of the vial headspace. An arylsulfonyl azide solution in DMSO (10 μL, 80 mM) was added to the reaction vial via a glass syringe, and the reaction was left stirring for 24 h at room temperature under positive argon pressure. […] Reactions were quenched by adding 30 μL 3 M HCl under argon. To the vials were then added acetonitrile (430 uL) and internal standard (o-toluenesulfonamide 10 mM in 50% acetonitrile 50% water, 1 mM final concentration). This mixture was then transferred to a microcentrifuge tube, and centrifuged at 17,000×g for 10 minutes. A portion (20 μL) of the supernatant was then analyzed by HPLC. For LC-MS analysis, the quenched reaction mixture was extracted twice with ethyl acetate (2×350 μL), dried under a light argon stream and resuspended in 50% water-acetonitrile (100 μL). For chiral HPLC the reactions were extracted as above with ethyl acetate, dried and resuspended in DMSO (100 μL) and then C18 purified as described above. The C18 purified material was dried, and resuspended in acetonitrile, and then injected onto the chiral HPLC system for analysis. Sultam formation was quantified comparison of integrated peak areas of internal standard and sultam at 220 nm to a calibration curve made using synthetically produced sultam and internal standard.
Purified enzymes were screened for activity in small scale reactions (400 μL) under anaerobic conditions as described above. Reactions were carried out using 0.5% mol of enzyme (10 μM) with respect to the triethylsulfonyl azide substrate 1 (2 mM). Standard reaction conditions described above were employed. Diethyl benzosultam product 3 (FIG. 18) was analyzed and quantified by reversed-phase HPLC (see above).
Small-scale reactions (400 μL total volume) were set up and worked up. Control reactions were performed with both the holoenzyme (BM3 with covalently linked reductase domain) and the isolated heme domain. […] Reactions of the complete system with heme domain (CS heme) included 2 mM Na2S2O4 rather than NADPH unless otherwise indicated in the table. […]

The mark [3] stands for this setting: chiral β-CDX GC, P450BM3 variants.
Setting [4] is: diastereomeric excess = ([cis] − [trans])/([cis] + [trans]), P450BM3 variants.

B1: WT F87A: P450BM3 variant: F87A (protein, listed as Bacillus megaterium)
chain: TIKEMPQPKTFGELKNLPLLNTDKPVQALMKIADELGEIFKFEAPGRVTRYLSSQRLIKEACDESRFDKNLSQALKFVRDFAGDGLATSWTHEKNWKKAHNILLPSFSQQAMKGYHAMMVDIAVQLVQKWERLNADEHIEVPEDMTRLTLDTIGLCGFNYRFNSFYRDQPHPFITSMVRALDEAMNKLQRANPDDPAYDENKRQFQEDIKVMNDLVDKIIADRKASGEQSDDLLTHMLNGKDPETGEPLDDENIRYQIITFLIAGHETTSGLLSFALYFLVKNPHVLQKAAEEAARVLVDPVPSYKQVKQLKYVGMVLNEALRLWPTAPAFSLYAKEDTVLGGEYPLEKGDELMVLIPQLHRDKTIWGDDVEEFRPERFENPSAIPQHAFKPFGNGQRACIGQQFALHEATLVLGMMLKHFDFEDHTNYELDIKETLTLKPEGFVVKAKSKKIPLGGIPSPSTEQSAKKVRKKAENAHNTPLLVLYGSNMGTAEGTARDLADIAMSKGFAPQVATLDSHAGNLPREGAVLIVTASYNGHPPDNAKQFVDWLDQASADEVKGVRYSVFGCGDKNWATTYQKVPAFIDETLAAKGAENIADRGEADASDDFEGTYEEWREHMWSDVAAYFNLDIENSEDNKSTLSLQFVDSAADMPLAKMHGAFSTNVVASKELQQPGSARSTRHLEIELPKEASYQEGDHLGVIPRNYEGIVNRVTARFGLDASQQIRLEAEEEKLAHLPLAKTVSVEELLQYVELQDPVTRTQLRAMAAKTVCPPHKVELEALLEKQAYKEQVLAKRLTMLELLEKYPACEMKFSEFIALLPSIRPRYYSISSSPRVDEKQASITVSVVSGEAWSGYGEYKGIASNYLAELQEGDTITCFISTPQSEFTLPKDPETPLIMVGPGTGVAPFRGFVQARKQLKEQGQSLGEAHLYFGCRSPHEDYLYQEELENAQSEGIITLHTAFSRMPNQPKTYVQHVMEQDGKKLIELLDQGAHFYICGDGSQMAPAVEATLMKSYADVHQVSEADARLWLQQLEEKGRYAKDVWAG
modifications: cytochrome P450NADPH-P-450 reductase precursor, cytochrome P450 (BM3), CYP102A1
For B1, the results for the “ee (cis)” value in assay [1] (chimeric P450s) and in assay [1] (setting [3]) were 56 and 57, respectively. The de in assay [1] (([cis] − [trans])/([cis] + [trans]), chimeric P450s) is −28; in assay [1] (setting [4]), −28. Also, the Absolute activity in assay [1] (P450BM3 variants) and in assay [1] (chimeric P450s) was 0.001704 throughout.

B2: WT T88L: P450BM3 variant: T88L (protein, listed as Bacillus megaterium)
chain: TIKEMPQPKTFGELKNLPLLNTDKPVQALMKIADELGEIFKFEAPGRVTRYLSSQRLIKEACDESRFDKNLSQALKFVRDFAGDGLFLSWTHEKNWKKAHNILLPSFSQQAMKGYHAMMVDIAVQLVQKWERLNADEHIEVPEDMTRLTLDTIGLCGFNYRFNSFYRDQPHPFITSMVRALDEAMNKLQRANPDDPAYDENKRQFQEDIKVMNDLVDKIIADRKASGEQSDDLLTHMLNGKDPETGEPLDDENIRYQIITFLIAGHETTSGLLSFALYFLVKNPHVLQKAAEEAARVLVDPVPSYKQVKQLKYVGMVLNEALRLWPTAPAFSLYAKEDTVLGGEYPLEKGDELMVLIPQLHRDKTIWGDDVEEFRPERFENPSAIPQHAFKPFGNGQRACIGQQFALHEATLVLGMMLKHFDFEDHTNYELDIKETLTLKPEGFVVKAKSKKIPLGGIPSPSTEQSAKKVRKKAENAHNTPLLVLYGSNMGTAEGTARDLADIAMSKGFAPQVATLDSHAGNLPREGAVLIVTASYNGHPPDNAKQFVDWLDQASADEVKGVRYSVFGCGDKNWATTYQKVPAFIDETLAAKGAENIADRGEADASDDFEGTYEEWREHMWSDVAAYFNLDIENSEDNKSTLSLQFVDSAADMPLAKMHGAFSTNVVASKELQQPGSARSTRHLEIELPKEASYQEGDHLGVIPRNYEGIVNRVTARFGLDASQQIRLEAEEEKLAHLPLAKTVSVEELLQYVELQDPVTRTQLRAMAAKTVCPPHKVELEALLEKQAYKEQVLAKRLTMLELLEKYPACEMKFSEFIALLPSIRPRYYSISSSPRVDEKQASITVSVVSGEAWSGYGEYKGIASNYLAELQEGDTITCFISTPQSEFTLPKDPETPLIMVGPGTGVAPFRGFVQARKQLKEQGQSLGEAHLYFGCRSPHEDYLYQEELENAQSEGIITLHTAFSRMPNQPKTYVQHVMEQDGKKLIELLDQGAHFYICGDGSQMAPAVEATLMKSYADVHQVSEADARLWLQQLEEKGRYAKDVWAG
modifications: cytochrome P450NADPH-P-450 reductase precursor, cytochrome P450 (BM3), CYP102A1
In the case of B2, in assay [1] (setting [3]), the “ee (cis)” value is reported as 23. Further, the de in assay [1] (setting [4]) was −78. The molecule further had an Absolute activity in assay [1] (P450BM3 variants) of 0.004522.

B3: ABC-CIS-A268T: BM3-CIS + C400S + A268T (9-10A TS + F87V, C400S) (protein, listed as Bacillus megaterium)
chain: TIKEMPQPKTFGELKNLPLLNTDKPVQALMKIADELGEIFKFEAPGRVTRYLSSQRLIKEACDESRFDKNLSQALKFARDFAGDGLVTSWTHEKNWKKAHNILLPSFSQQAMKGYHAMMVDIAVQLVQKWERLNADEHIEVSEDMTRLTLDTIGLCGFNYRFNSFYRDQPHPFIISMVRALDEVMNKLQRANPDDPAYDENKRQFQEDIKVMNDLVDKIIADRKARGEQSDDLLTQMLNGKDPETGEPLDDGNIRYQIITFLIAGHETTSGLLSFALYFLVKNPHVLQKVAEEAARVLVDPVPSYKQVKQLKYVGMVLNEALRLWPTAPAFSLYAKEDTVLGGEYPLEKGDEVMVLIPQLHRDKTVWGDDVEEFRPERFENPSAIPQHAFKPFGNGQRASIGQQFALHEATLVLGMMLKHFDFEDHTNYELDIKETLTLKPKGFVVKAKSKKIPLGGIPSPSTEQSAKKVRKKAENAHNTPLLVLYGSNMGTAEGTARDLADIAMSKGFAPQVATLDSHAGNLPREGAVLIVTASYNGHPPDNAKQFVDWLDQASADEVKGVRYSVFGCGDKNWATTYQKVPAFIDETLAAKGAENIADRGEADASDDFEGTYEEWREHMWSDVAAYFNLDIENSEDNKSTLSLQFVDSAADMPLAKMHGAFSTNVVASKELQQPGSARSTRHLEIELPKEASYQEGDHLGVIPRNYEGIVNRVTARFGLDASQQIRLEAEEEKLAHLPLAKTVSVEELLQYVELQDPVTRTQLRAMAAKTVCPPHKVELEALLEKQAYKEQVLAKRLTMLELLEKYPACEMKFSEFIALLPSIRPRYYSISSSPRVDEKQASITVSVVSGEAWSGYGEYKGIASNYLAELQEGDTITCFISTPQSEFTLPKDPETPLIMVGPGTGVAPFRGFVQARKQLKEQGQSLGEAHLYFGCRSPHEDYLYQEELENAQSEGIITLHTAFSRMPNQPKTYVQHVMEQDGKKLIELLDQGAHFYICGDGSQMAPAVEATLMKSYADVHQVSEADARLWLQQLEEKGRYAKDVWAG
modifications: cytochrome P450NADPH-P-450 reductase precursor, cytochrome P450 (BM3), CYP102A1
In the case of B3, the TTN in assay [2] (0.1 mol % catalyst loading (2 μM), 2 mM azide 1, 2 mM NADPH) is 82. For the same molecule, the “% ee” value in assay [2] (0.1 mol % catalyst loading, (S−R)/(S+R)) was determined as 47%.

(Values after patent US20150267232A1, “IN VIVO AND IN VITRO CARBENE INSERTION AND NITRENE TRANSFER REACTIONS CATALYZED BY HEME ENZYMES” (California Institute of Technology, priority 2012, published 2015).)
